For test [1], the target named is T1, tree shrew CRHR1 extracellular domain (tree shrew).
T1 chain: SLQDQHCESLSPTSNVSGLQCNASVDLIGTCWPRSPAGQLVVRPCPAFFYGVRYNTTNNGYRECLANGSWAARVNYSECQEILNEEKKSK
Description: SPR; BIACORE3000; CRHR1-ECD immobilised on the sensor chip (about 2000 RU, 10 mM NaAc pH 4.5); CRH peptides serially diluted (5 concentrations) in PBS pH 7.4, 30 μl/min, 3 min injection, 2 min dissociation, 25 °C.

Test [2] addresses T1, tree shrew CRHR1 extracellular domain. The test can be described thus: SPR.
For test [3], the target named is T2, human CRHR1 extracellular domain (human).
T2 chain: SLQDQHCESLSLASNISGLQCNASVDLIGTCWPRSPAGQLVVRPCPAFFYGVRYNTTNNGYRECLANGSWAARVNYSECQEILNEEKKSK
The test can be described thus: SPR.

Test [4] addresses T2, human CRHR1 extracellular domain. Description: SPR; BIACORE3000; CRHR1-ECD immobilised on the sensor chip (about 2000 RU, 10 mM NaAc pH 4.5); CRH peptides serially diluted (5 concentrations) in PBS pH 7.4, 30 μl/min, 3 min injection, 2 min dissociation, 25 °C.

For the molecule “tree shrew corticotrophin-releasing hormone (CRH) peptide”, in test [1], the Kd is 0.176 µM.
As for SEEPPISLDLTFHLLREVLEMARAEQLAQQAHSNRKLMEMI [tree shrew corticotrophin-releasing hormone (CRH) peptide], the Kd in test [2] was 1.76 µM; in test [3], 2.05 µM.
Consider SEEPPISLDLTFHLLREVLEMARAEQLAQQAHSNRKLMEIIGK [human corticotrophin-releasing hormone (CRH) peptide], for which the Kd in test [2] stood at 1.46 µM; in test [3] it was 2.11 µM; in test [4], 0.211 µM.
